Results on 5 molecules are retold here after paper PMC11001878, “Engineering an artificial catch bond using mechanical anisotropy” (Nature Communications, 2024).

Test [1] has as its target ybbr-ELP-FLN-DocG (Ruminococcus champanellensis). Nature of the test: AFM single-molecule force spectroscopy; constant pulling speed (100, 400, 800, 3200 nm/s); both partners tethered through ybbr tags, CohE on the cantilever and DocG on the glass; dwell 200 ms; TBS Ca buffer (25 mM Tris, 72 mM NaCl, 1 mM CaCl2, pH 7.2); zero-force off rate k0 from a Bell-Evans fit, one for each unbinding pathway.

Test [2] concerns the target DocG-FLN-ELP-ybbr (Ruminococcus champanellensis). The description is as above.
The target in test [3] is T1, DocG A77C mutant protein labeled with Cy3b (Ruminococcus champanellensis, A77C, Cy3b (maleimide-conjugated) on the cysteine at 77).
T1 chain: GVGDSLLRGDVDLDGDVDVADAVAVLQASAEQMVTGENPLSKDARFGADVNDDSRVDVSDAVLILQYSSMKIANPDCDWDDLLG
Description: MST; 20 nM Cy3b-labelled DocG A77C mixed with a series of CohE, 16 samples, 0.0763 nM to 2.5 µM; Nanotemper Monolith NT.115. The note with it: both partners purified.

Consider CohE-FLN-ELP-ybbr (domain or fragment), for which, in test [1], the log(k0), high force pathway was -7 and the log(k0), low force pathway was -9. In test [2], this molecule yielded a log(k0), high force pathway of -7 and a log(k0), low force pathway of -31. Take ybbr-ELP-FLN-CohE (domain or fragment): the log(k0), single pathway in test [1] is -4.2.

B1: CohE wild-type (domain or fragment)
chain: LSMDQKFAEPGETVEIALNLENFDASWTGLEFLVNYDPKLEVALDGAGDIDYSYGDAIGAMGKKISVGGAISKDLTADGLKGFAFAWGTATAISGNGQLGVFKFTVPADAQPGDEFPVNLTVNVGSFIDANKENIPFETVNGWIKI
In turn, B1 yielded a Kd in test [3] of 14 ± 4 nM.

B2: CohE F13AzF-Fgβ (domain or fragment)
chain 1: LSMDQKFAEPGETVEIALNLENFDASWTGLEFLVNYDPKLEVALDGAGDIDYSYGDAIGAMGKKISVGGAISKDLTADGLKGFAFAWGTATAISGNGQLGVFKFTVPADAQPGDEFPVNLTVNVGSFIDANKENIPFETVNGWIKI
chain 2: NEEGFFSARGHRPLDGSWSHPQFEKGSGSC
modifications: azido-phenylalanine (AzF) at 13, covalently conjugated by the azide-DBCO click reaction with the Fgβ-StrepTag-DBCO peptide | C-terminal cysteine bearing DBCO, linked to the azide of AzF13 of the CohE chain
In test [3], B2 had an equilibrium dissociation constant (Kd) of 40 ± 8 nM.

B3: CohE K87AzF-Fgβ (domain or fragment)
chain 1: LSMDQKFAEPGETVEIALNLENFDASWTGLEFLVNYDPKLEVALDGAGDIDYSYGDAIGAMGKKISVGGAISKDLTADGLKGFAFAWGTATAISGNGQLGVFKFTVPADAQPGDEFPVNLTVNVGSFIDANKENIPFETVNGWIKI
chain 2: NEEGFFSARGHRPLDGSWSHPQFEKGSGSC
modifications: azido-phenylalanine (AzF) at 87, covalently conjugated by the azide-DBCO click reaction with the Fgβ-StrepTag-DBCO peptide | C-terminal cysteine bearing DBCO, linked to the azide of AzF87 of the CohE chain
With B3, in test [3], binding was characterised by a dissociation constant (Kd) of 19 ± 10 nM.
